The source of these data is US20240368299A1 (JIANGSU KANION PHARMACEUTICAL, published 2024).

For one assay, the target named is T1, CD73 on A549 cells (UniProt P21589 27-549, limits assumed).
T1 sequence (looked up): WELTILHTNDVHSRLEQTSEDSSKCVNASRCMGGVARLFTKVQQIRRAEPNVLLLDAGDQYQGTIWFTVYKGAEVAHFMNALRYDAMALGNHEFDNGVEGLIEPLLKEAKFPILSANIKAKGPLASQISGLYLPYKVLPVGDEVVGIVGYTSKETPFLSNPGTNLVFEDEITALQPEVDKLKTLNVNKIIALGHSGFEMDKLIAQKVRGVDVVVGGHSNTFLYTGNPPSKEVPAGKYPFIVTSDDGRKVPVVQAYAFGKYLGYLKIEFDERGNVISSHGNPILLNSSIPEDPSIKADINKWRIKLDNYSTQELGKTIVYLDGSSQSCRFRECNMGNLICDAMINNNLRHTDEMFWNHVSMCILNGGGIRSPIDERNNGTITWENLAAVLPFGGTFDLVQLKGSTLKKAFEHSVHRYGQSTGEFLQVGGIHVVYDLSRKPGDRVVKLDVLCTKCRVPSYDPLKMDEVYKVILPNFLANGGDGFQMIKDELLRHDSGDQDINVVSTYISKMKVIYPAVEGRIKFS
The assay can be described thus: cell-based or functional assay.

For assay [1], the target named is recombinant human CD73 protein with C-terminal 6xHis tag (human) (UniProt P21589). The assay can be described thus: SPR, Biacore T200, antibody captured on CM5 chip, human CD73 injected, 25 C, 1:1 fit. In general terms: SPR reads the build-up and loss of mass on a sensor chip optically.
Assay [2] has the same target. The assay can be described thus: cell-based or functional assay.
In assay [3] the target is T2, recombinant human CD73 protein with C-terminal 6xHis tag (human, UniProt P21589 27-547, limits assumed).
T2 construct: also called Ecto-5'-nucleotidase
T2 sequence: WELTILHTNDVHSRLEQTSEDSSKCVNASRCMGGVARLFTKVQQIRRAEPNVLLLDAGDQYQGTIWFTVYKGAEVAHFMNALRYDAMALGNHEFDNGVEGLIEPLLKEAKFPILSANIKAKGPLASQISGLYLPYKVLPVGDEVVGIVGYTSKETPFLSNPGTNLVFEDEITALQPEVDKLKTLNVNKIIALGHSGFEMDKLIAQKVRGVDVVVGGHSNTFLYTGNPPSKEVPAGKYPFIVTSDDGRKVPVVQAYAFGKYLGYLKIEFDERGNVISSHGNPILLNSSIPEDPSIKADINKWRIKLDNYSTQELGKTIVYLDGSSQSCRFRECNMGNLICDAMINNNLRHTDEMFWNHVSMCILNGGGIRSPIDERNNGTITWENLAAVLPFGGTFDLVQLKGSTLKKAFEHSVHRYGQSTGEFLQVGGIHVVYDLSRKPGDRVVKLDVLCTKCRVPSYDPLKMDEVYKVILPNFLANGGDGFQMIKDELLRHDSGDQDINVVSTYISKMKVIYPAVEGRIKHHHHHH
The assay can be described thus: SPR, Biacore T200, antibody captured by anti-mouse Fc IgG on CM5 chip, human CD73 injected, 25 C, 1:1 fit. As to the method:
Mouse Antibody Capture Kit, which is a commercialized reagent kit, was purchased from GE. Anti-mouse Fc IgG was fixated on a CM5 sensor chip by amine coupling in order to capture the antibody under test with the coupled anti-mouse Fc IgG. A series of human CD73 proteins having a predetermined concentration gradient were then injected, before samples were taken and tested with the pH 1.7 glycine-HCl regeneration testing chip that came with the reagent kit.
The binding constant (Ka), the dissociation rate constant (Kd), and the equilibrium constant (KD) were calculated with the Biacore T200 evaluation software by combining the model fitting data at a 1:1 ratio.

In assay [4] the target is T2, recombinant human CD73 protein with …. The assay can be described thus: cell-based or functional assay.

“MEDI-9447, anti-CD73 monoclonal antibody of MedImmune LLC” displayed an EC50 (µg/mL), Cell level (A549), inhibition of CD73 enzyme activity in the assay with CD73 on A549 cells of 0.032 µg/mL. Also, in assay [1], the Kd was determined as 0.141 nM, the koff is 3.91e-05 s⁻¹ and the on-rate (kon) was found to be 278000 M⁻¹ s⁻¹. The EC50 (µg/mL), Biochemical level, inhibition of CD73 enzyme activity in assay [2] came to 0.0896 µg/mL.

B1: anti-human CD73 monoclonal antibody 7-C10-Ba-C2 (antibody, V domains shown)
VH: EVQLQQSGPELVKPGASMKISCKASGYSFTGYTMNWVKQSHGKNLEWIGFITPYNGDTIYNQKFKGKATVTVDKSSSTAYMDLLSLTSEDSAVYYCAREGYDGGYFDYWGQGTTLTVSS
VL: DIQMTQSPASLSASVGETVTITCRASENIYSYLAWYQQKQGKSPQLLVYNTQTLAEGVPSRFSGSGSGTQFSLKINSLQPEDFGSYYCQHHYGTPMYPFGGGTKLEIK
notes: Mouse (BABL/c) hybridoma antibody purified from ascitic fluid; also called antibody of the present invention
In the case of B1, in assay [3], the Kd was found to be 0.416 nM, the koff amounted to 3.21e-05 s⁻¹ and the kon amounted to 77200 M⁻¹ s⁻¹. In the assay with CD73 on A549 cells, the “EC50 (µg/mL), Cell level (A549), inhibition of CD73 enzyme activity” value is 0.0854 µg/mL. Moreover, the “EC50 (µg/mL), Biochemical level, inhibition of CD73 enzyme activity” value in assay [4] is 0.106 µg/mL.

In general, Kd refers to the concentration at which binding is half-saturated. Usually koff stands for the rate constant with which the complex falls apart. The kon is the rate constant with which the complex forms.
